Numbering of substitutions follows the chain as printed.
Assays:
[1] = molecular target: T1, ScPex1^G700D (Pex1-FLAG G700D), S. cerevisiae (S. cerevisiae, UniProt P24004 1-1043, G700D); experiment: SEC
T1 sequence: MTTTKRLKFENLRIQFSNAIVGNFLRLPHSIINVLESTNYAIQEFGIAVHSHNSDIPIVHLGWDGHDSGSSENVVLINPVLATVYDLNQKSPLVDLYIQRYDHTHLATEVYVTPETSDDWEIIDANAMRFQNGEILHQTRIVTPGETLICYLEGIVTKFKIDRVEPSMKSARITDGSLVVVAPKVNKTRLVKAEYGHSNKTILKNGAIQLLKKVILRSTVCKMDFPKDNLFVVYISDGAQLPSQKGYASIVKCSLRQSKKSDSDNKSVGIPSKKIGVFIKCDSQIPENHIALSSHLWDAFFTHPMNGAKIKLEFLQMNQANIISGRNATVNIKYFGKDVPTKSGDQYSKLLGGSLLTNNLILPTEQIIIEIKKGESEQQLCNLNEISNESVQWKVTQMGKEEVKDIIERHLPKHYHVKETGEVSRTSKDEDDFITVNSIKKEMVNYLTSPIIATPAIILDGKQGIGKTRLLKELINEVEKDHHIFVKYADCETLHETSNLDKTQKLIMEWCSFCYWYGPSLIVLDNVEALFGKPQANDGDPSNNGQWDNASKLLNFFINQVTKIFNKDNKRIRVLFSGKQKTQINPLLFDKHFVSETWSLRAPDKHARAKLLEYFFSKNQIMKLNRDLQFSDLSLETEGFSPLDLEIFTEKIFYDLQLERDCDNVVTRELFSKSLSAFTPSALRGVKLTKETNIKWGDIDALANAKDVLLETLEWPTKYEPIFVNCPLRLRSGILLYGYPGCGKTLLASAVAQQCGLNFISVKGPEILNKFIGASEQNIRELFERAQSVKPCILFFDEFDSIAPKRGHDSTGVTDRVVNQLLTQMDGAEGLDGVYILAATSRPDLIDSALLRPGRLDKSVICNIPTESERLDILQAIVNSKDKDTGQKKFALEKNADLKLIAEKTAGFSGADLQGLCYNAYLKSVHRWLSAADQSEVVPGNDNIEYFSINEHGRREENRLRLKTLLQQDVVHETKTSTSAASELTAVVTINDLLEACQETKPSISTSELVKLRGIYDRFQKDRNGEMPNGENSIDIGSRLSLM

[2] = molecular target: T2, ScPex1^WT (Pex1-FLAG), S. cerevisiae (S. cerevisiae, UniProt P24004 1-1043); experiment: SEC
T2 sequence: T1 sequence with D700G

binding result [1]: binds | binding result [2]: binds
B1: ScPex6 (His-Pex6), S. cerevisiae (natural protein)
chain: MKASLTFSLSGIYAPCSISRDIYLEYGDKKAECLYGTIRLPQYGPGCTPGKIVHCVLDDSLPFCSIVVPSKLFGFMPTQPTMDFCYFEPILDNVVPVLDSVTFLINEQLYSKLMDLPQEMQQIQFLHYKYNINSMETVVHSRDILTSGLCQILNCSPFPQGLVDFTETQLILVNDTEQKLSALKYANEDEEYALPKIGTNSALSIDLESLPCTISRDLLRPAPHINDDNSIYAFTDAETLLRLDVTSGSFITVSNMGCVRLVKLFVLLLPNGFKKRTIYAPPKIIASFPDCSVVTISKSNIGHTDIPIANQVFISRVGGWLQSQKCFQNIILTTLKKFFSESKRILCQNDLIPIAFDSSMADLNIAEENDESDDEDELGQYYKNDSLVWFFVTSAELDCFSKDNSHFIIDPNRTKLITTNITNRRPLPLSRSNLQRYYGFAETFYYDLHIFPYVRQLVNILETSFNCSQRGITLNASVLLHSTTNNVGKATMVRFASKYLGIHLLEIDCLSLTSNSRQLDSTSKIIGYIRAKCENVLPYASPAVIFLAHLDSILLDVNANQDPEAIKLQKSINFEMSKLLDDFTFKFPGTTFVGSVNNIDNVPSSFRSHMRFEILVPVPSEAQRLRIFQWYLSSHELNRDVQQKVPVSYMDNISFSSLSSYSAGLTPLDIKSIVETARMTATARFYQESKKCGWLPQSILITQEDLSKATSKARNEFSVSIGAPQIPNVTWDDIGGIDFVKGEILDTIDMPLKHPELFTSGMKKRSGILFYGPPGTGKTLMAKAIATNFSLNFFSVKGPELLNMYIGESEANVRRVFQKAREAKPCVIFFDEIDSVAPKRGNQGDSGGVMDRIVSQLLAELDGMSTDADGVFVIGATNRPDLLDEALLRPGRFDKLLYLGIPDTDTKQLNILEALTRKFVLDNDVKLIELAKLCPFNYTGADFYALCSDAMLNAMSRIARMVEKKVSQHNELTGENISTRRWFDKIATKEDTKVVVKMEDFLKAQEQLTPSVSRAELNHYEAVRANFEGA

— article PMC11661142 (bioRxiv, 2024)
